Reference: patent US20200283478A1 (Genentech, published 2020)
Bridge positions count the residues as written; N and C are the ends. Square brackets hold non-standard residues; d marks the D form. Primed or numbered codes have the meaning given here. Ends that are not written are not given here. hArg = N=C(N)NCCCC[C@H](N)C(=O)O; Hyp′ = 3-hydroxyproline; Ahp = NCCCCCCC(=O)O; Ahx = NCCCCCC(=O)O

B1: Compound 110 (Ac-cRLPWNLQRIGLPC-NH2) (peptide)
peptide: Ac-[dC]RLPWNLQRIGLPC-NH2
modifications: disulfide 1-14
SMILES: CC[C@H](C)[C@@H]1NC(=O)[C@H](CCCNC(=N)N)NC(=O)[C@H](CCC(N)=O)NC(=O)[C@H](CC(C)C)NC(=O)[C@H](CC(N)=O)NC(=O)[C@H](Cc2c[nH]c3ccccc23)NC(=O)[C@@H]2CCCN2C(=O)[C@H](CC(C)C)NC(=O)[C@H](CCCNC(=N)N)NC(=O)[C@H](NC(C)=O)CSSC[C@@H](C(N)=O)NC(=O)[C@@H]2CCCN2C(=O)[C@H](CC(C)C)NC(=O)CNC1=O
B2: Compound 117 (Ac-CRLPWNLQ(homoR)IGLPC-NH2) (peptide)
peptide: Ac-CRLPWNLQ[hArg]IGLPC-NH2
modifications: disulfide 1-14
SMILES: CC[C@H](C)[C@@H]1NC(=O)[C@H](CCCCNC(=N)N)NC(=O)[C@H](CCC(N)=O)NC(=O)[C@H](CC(C)C)NC(=O)[C@H](CC(N)=O)NC(=O)[C@H](Cc2c[nH]c3ccccc23)NC(=O)[C@@H]2CCCN2C(=O)[C@H](CC(C)C)NC(=O)[C@H](CCCNC(=N)N)NC(=O)[C@@H](NC(C)=O)CSSC[C@@H](C(N)=O)NC(=O)[C@@H]2CCCN2C(=O)[C@H](CC(C)C)NC(=O)CNC1=O
B3: Compound 37 (Ac-SG-CRL(Hyp)WNLQRIGLPC-NH2) (peptide)
peptide: Ac-SGCRL[Hyp′]WNLQRIGLPC-NH2
modifications: disulfide 3-16
B4: Compound 88 (Ac-FCLWNLARIGSQCWF-NH2) (peptide)
peptide: Ac-FCLWNLARIGSQCWF-NH2
modifications: disulfide 2-13
SMILES: CC[C@H](C)[C@@H]1NC(=O)[C@H](CCCNC(=N)N)NC(=O)[C@H](C)NC(=O)[C@H](CC(C)C)NC(=O)[C@H](CC(N)=O)NC(=O)[C@H](Cc2c[nH]c3ccccc23)NC(=O)[C@H](CC(C)C)NC(=O)[C@@H](NC(=O)[C@H](Cc2ccccc2)NC(C)=O)CSSC[C@@H](C(=O)N[C@@H](Cc2c[nH]c3ccccc23)C(=O)N[C@@H](Cc2ccccc2)C(N)=O)NC(=O)[C@H](CCC(N)=O)NC(=O)[C@H](CO)NC(=O)CNC1=O
B5: Compound 66 (WCLWNLKRIGSQCWF) (peptide)
peptide: H-WCLWNLKRIGSQCWF-OH
modifications: disulfide 2-13
SMILES: CC[C@H](C)[C@@H]1NC(=O)[C@H](CCCNC(=N)N)NC(=O)[C@H](CCCCN)NC(=O)[C@H](CC(C)C)NC(=O)[C@H](CC(N)=O)NC(=O)[C@H](Cc2c[nH]c3ccccc23)NC(=O)[C@H](CC(C)C)NC(=O)[C@@H](NC(=O)[C@@H](N)Cc2c[nH]c3ccccc23)CSSC[C@@H](C(=O)N[C@@H](Cc2c[nH]c3ccccc23)C(=O)N[C@@H](Cc2ccccc2)C(=O)O)NC(=O)[C@H](CCC(N)=O)NC(=O)[C@H](CO)NC(=O)CNC1=O
B6: Compound 63 (Ac-MCLWNLKRIGSQCEY-NH2) (peptide)
peptide: Ac-MCLWNLKRIGSQCEY-NH2
modifications: disulfide 2-13
SMILES: CC[C@H](C)[C@@H]1NC(=O)[C@H](CCCNC(=N)N)NC(=O)[C@H](CCCCN)NC(=O)[C@H](CC(C)C)NC(=O)[C@H](CC(N)=O)NC(=O)[C@H](Cc2c[nH]c3ccccc23)NC(=O)[C@H](CC(C)C)NC(=O)[C@@H](NC(=O)[C@H](CCSC)NC(C)=O)CSSC[C@@H](C(=O)N[C@@H](CCC(=O)O)C(=O)N[C@@H](Cc2ccc(O)cc2)C(N)=O)NC(=O)[C@H](CCC(N)=O)NC(=O)[C@H](CO)NC(=O)CNC1=O
B7: Compound 65 (Ac-WCLWNLKRIGSQCEY-NH2) (peptide)
peptide: Ac-WCLWNLKRIGSQCEY-NH2
modifications: disulfide 2-13
SMILES: CC[C@H](C)[C@@H]1NC(=O)[C@H](CCCNC(=N)N)NC(=O)[C@H](CCCCN)NC(=O)[C@H](CC(C)C)NC(=O)[C@H](CC(N)=O)NC(=O)[C@H](Cc2c[nH]c3ccccc23)NC(=O)[C@H](CC(C)C)NC(=O)[C@@H](NC(=O)[C@H](Cc2c[nH]c3ccccc23)NC(C)=O)CSSC[C@@H](C(=O)N[C@@H](CCC(=O)O)C(=O)N[C@@H](Cc2ccc(O)cc2)C(N)=O)NC(=O)[C@H](CCC(N)=O)NC(=O)[C@H](CO)NC(=O)CNC1=O
B8: Compound 95 (Ac-FCLWNLKRIGSQCEY-NH2) (peptide)
peptide: Ac-FCLWNLKRIGSQCEY-NH2
modifications: disulfide 2-13
SMILES: CC[C@H](C)[C@@H]1NC(=O)[C@H](CCCNC(=N)N)NC(=O)[C@H](CCCCN)NC(=O)[C@H](CC(C)C)NC(=O)[C@H](CC(N)=O)NC(=O)[C@H](Cc2c[nH]c3ccccc23)NC(=O)[C@H](CC(C)C)NC(=O)[C@@H](NC(=O)[C@H](Cc2ccccc2)NC(C)=O)CSSC[C@@H](C(=O)N[C@@H](CCC(=O)O)C(=O)N[C@@H](Cc2ccc(O)cc2)C(N)=O)NC(=O)[C@H](CCC(N)=O)NC(=O)[C@H](CO)NC(=O)CNC1=O
B9: Compound 121 (Ac-CRLPWNLQRI-(Ahp)-C-NH2) (peptide)
peptide: Ac-CRLPWNLQRI[Ahp]C-NH2
modifications: disulfide 1-12
SMILES: CC[C@H](C)[C@@H]1NC(=O)[C@H](CCCNC(=N)N)NC(=O)[C@H](CCC(N)=O)NC(=O)[C@H](CC(C)C)NC(=O)[C@H](CC(N)=O)NC(=O)[C@H](Cc2c[nH]c3ccccc23)NC(=O)[C@@H]2CCCN2C(=O)[C@H](CC(C)C)NC(=O)[C@H](CCCNC(=N)N)NC(=O)[C@@H](NC(C)=O)CSSC[C@@H](C(N)=O)NC(=O)CCCCCCNC1=O
B10: Compound 108 (Ac-CRlPWNLQRIGLPC-NH2) (peptide)
peptide: Ac-CR[dL]PWNLQRIGLPC-NH2
modifications: disulfide 1-14
SMILES: CC[C@H](C)[C@@H]1NC(=O)[C@H](CCCNC(=N)N)NC(=O)[C@H](CCC(N)=O)NC(=O)[C@H](CC(C)C)NC(=O)[C@H](CC(N)=O)NC(=O)[C@H](Cc2c[nH]c3ccccc23)NC(=O)[C@@H]2CCCN2C(=O)[C@@H](CC(C)C)NC(=O)[C@H](CCCNC(=N)N)NC(=O)[C@@H](NC(C)=O)CSSC[C@@H](C(N)=O)NC(=O)[C@@H]2CCCN2C(=O)[C@H](CC(C)C)NC(=O)CNC1=O
B11: Compound 116 (Ac-CRLPWNLQRI-(Ahx)-C-NH2) (peptide)
peptide: Ac-CRLPWNLQRI[Ahx]C-NH2
modifications: disulfide 1-12
SMILES: CC[C@H](C)[C@@H]1NC(=O)[C@H](CCCNC(=N)N)NC(=O)[C@H](CCC(N)=O)NC(=O)[C@H](CC(C)C)NC(=O)[C@H](CC(N)=O)NC(=O)[C@H](Cc2c[nH]c3ccccc23)NC(=O)[C@@H]2CCCN2C(=O)[C@H](CC(C)C)NC(=O)[C@H](CCCNC(=N)N)NC(=O)[C@@H](NC(C)=O)CSSC[C@@H](C(N)=O)NC(=O)CCCCCNC1=O
B12: Compound 89 (WCLWNLKRIGSQCWF-NH2) (peptide)
peptide: WCLWNLKRIGSQCWF-NH2
modifications: disulfide 2-13; N-terminus assumed
SMILES: CC[C@H](C)[C@@H]1NC(=O)[C@H](CCCNC(=N)N)NC(=O)[C@H](CCCCN)NC(=O)[C@H](CC(C)C)NC(=O)[C@H](CC(N)=O)NC(=O)[C@H](Cc2c[nH]c3ccccc23)NC(=O)[C@H](CC(C)C)NC(=O)[C@@H](NC(=O)[C@@H](N)Cc2c[nH]c3ccccc23)CSSC[C@@H](C(=O)N[C@@H](Cc2c[nH]c3ccccc23)C(=O)N[C@@H](Cc2ccccc2)C(N)=O)NC(=O)[C@H](CCC(N)=O)NC(=O)[C@H](CO)NC(=O)CNC1=O
B13: Compound 87 (Ac-GCLWNLKRIGSQCWF-NH2) (peptide)
peptide: Ac-GCLWNLKRIGSQCWF-NH2
modifications: disulfide 2-13
SMILES: CC[C@H](C)[C@@H]1NC(=O)[C@H](CCCNC(=N)N)NC(=O)[C@H](CCCCN)NC(=O)[C@H](CC(C)C)NC(=O)[C@H](CC(N)=O)NC(=O)[C@H](Cc2c[nH]c3ccccc23)NC(=O)[C@H](CC(C)C)NC(=O)[C@@H](NC(=O)CNC(C)=O)CSSC[C@@H](C(=O)N[C@@H](Cc2c[nH]c3ccccc23)C(=O)N[C@@H](Cc2ccccc2)C(N)=O)NC(=O)[C@H](CCC(N)=O)NC(=O)[C@H](CO)NC(=O)CNC1=O
B14: Compound 90 (Ac-WCLWNLKRIGSQCWF) (peptide)
peptide: Ac-WCLWNLKRIGSQCWF
modifications: disulfide 2-13
B15: Compound 40 (Ac-GSG-CWNLKRIGSQGCW-NH2) (peptide)
peptide: Ac-GSGCWNLKRIGSQGCW-NH2
modifications: disulfide 4-15
SMILES: CC[C@H](C)[C@@H]1NC(=O)[C@H](CCCNC(=N)N)NC(=O)[C@H](CCCCN)NC(=O)[C@H](CC(C)C)NC(=O)[C@H](CC(N)=O)NC(=O)[C@H](Cc2c[nH]c3ccccc23)NC(=O)[C@@H](NC(=O)CNC(=O)[C@H](CO)NC(=O)CNC(C)=O)CSSC[C@@H](C(=O)N[C@@H](Cc2c[nH]c3ccccc23)C(N)=O)NC(=O)CNC(=O)[C@H](CCC(N)=O)NC(=O)[C@H](CO)NC(=O)CNC1=O
B16: Compound 109 (Ac-CrLPWNLQRIGLPC-NH2) (peptide)
peptide: Ac-C[dR]LPWNLQRIGLPC-NH2
modifications: disulfide 1-14
SMILES: CC[C@H](C)[C@@H]1NC(=O)[C@H](CCCNC(=N)N)NC(=O)[C@H](CCC(N)=O)NC(=O)[C@H](CC(C)C)NC(=O)[C@H](CC(N)=O)NC(=O)[C@H](Cc2c[nH]c3ccccc23)NC(=O)[C@@H]2CCCN2C(=O)[C@H](CC(C)C)NC(=O)[C@@H](CCCNC(=N)N)NC(=O)[C@@H](NC(C)=O)CSSC[C@@H](C(N)=O)NC(=O)[C@@H]2CCCN2C(=O)[C@H](CC(C)C)NC(=O)CNC1=O

target: T1, His-tagged, full-length PCSK9 (human, UniProt Q8NBP7 31-692); assay: TR-FRET competition (PCSK9/EGF(A) assay); competitor EGF(A)-Fc;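 also: proximity signal from anti-His APC on PCSK9 paired with anti-Fc europium on the Fc ligand, read as normalized TR-FRET ratio across compound dilutions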
T1 construct: secreted PCSK9 is autocatalytically cleaved into prodomain and catalytic domain + CRD (from S153), which stay associated; also called His-PCSK9; proprotein convertase subtilisin/kexin type 9; not shown: His tag
T1 sequence (Q8NBP7 31-692 limits assumed): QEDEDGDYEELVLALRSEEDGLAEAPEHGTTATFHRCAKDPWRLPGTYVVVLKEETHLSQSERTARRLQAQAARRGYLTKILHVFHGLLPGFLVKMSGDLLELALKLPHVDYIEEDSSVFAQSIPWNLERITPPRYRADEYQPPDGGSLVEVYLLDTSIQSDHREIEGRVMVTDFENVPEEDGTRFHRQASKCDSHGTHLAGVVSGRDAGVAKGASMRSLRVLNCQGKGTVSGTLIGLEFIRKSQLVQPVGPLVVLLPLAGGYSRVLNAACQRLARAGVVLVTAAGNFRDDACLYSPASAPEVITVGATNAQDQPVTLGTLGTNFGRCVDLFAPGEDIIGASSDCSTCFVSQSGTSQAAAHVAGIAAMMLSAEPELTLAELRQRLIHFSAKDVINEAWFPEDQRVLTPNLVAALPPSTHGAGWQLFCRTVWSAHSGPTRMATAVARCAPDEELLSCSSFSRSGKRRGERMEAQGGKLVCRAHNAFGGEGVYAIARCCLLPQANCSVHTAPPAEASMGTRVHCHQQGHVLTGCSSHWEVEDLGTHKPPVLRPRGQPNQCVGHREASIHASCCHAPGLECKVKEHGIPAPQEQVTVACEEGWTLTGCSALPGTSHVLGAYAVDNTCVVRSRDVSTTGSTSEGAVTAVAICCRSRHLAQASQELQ

Binder | IC50
B1 | > 50 µM
B2 | > 50 µM
B3 | > 50 µM
B4 | 17.9 µM
B5 | 31.3 µM
B6 | 14.6 µM
B7 | > 50 µM
B8 | > 50 µM
B9 | > 50 µM
B10 | > 50 µM
B11 | > 50 µM
B12 | 6.9 µM
B13 | > 50 µM
B14 | 29.2 µM
B15 | 5.96 µM
B16 | > 50 µM

target: T2, His-tagged PCSK9Δhelix (human, UniProt Q8NBP7 31-152; Q8NBP7 168-692); assay: TR-FRET competition (PCSK9Δhelix/Ab20 assay); competitor Ab20
T2 construct: Human PCSK9 M1-Q692 with an engineered TEV site, cut by TEV protease; new N-terminus of the catalytic domain is S-A168; also called His-PCSK9Δhelix; not shown: His tag
T2 sequence (Q8NBP7 31-152, stated change not applied, chain 1 of 2): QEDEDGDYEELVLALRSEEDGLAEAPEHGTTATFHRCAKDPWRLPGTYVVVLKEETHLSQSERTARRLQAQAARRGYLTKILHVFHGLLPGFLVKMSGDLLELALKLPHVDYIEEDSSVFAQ
T2 sequence (Q8NBP7 other isoform, or with tags, fused parts or gaps mutant, chain 2 of 2): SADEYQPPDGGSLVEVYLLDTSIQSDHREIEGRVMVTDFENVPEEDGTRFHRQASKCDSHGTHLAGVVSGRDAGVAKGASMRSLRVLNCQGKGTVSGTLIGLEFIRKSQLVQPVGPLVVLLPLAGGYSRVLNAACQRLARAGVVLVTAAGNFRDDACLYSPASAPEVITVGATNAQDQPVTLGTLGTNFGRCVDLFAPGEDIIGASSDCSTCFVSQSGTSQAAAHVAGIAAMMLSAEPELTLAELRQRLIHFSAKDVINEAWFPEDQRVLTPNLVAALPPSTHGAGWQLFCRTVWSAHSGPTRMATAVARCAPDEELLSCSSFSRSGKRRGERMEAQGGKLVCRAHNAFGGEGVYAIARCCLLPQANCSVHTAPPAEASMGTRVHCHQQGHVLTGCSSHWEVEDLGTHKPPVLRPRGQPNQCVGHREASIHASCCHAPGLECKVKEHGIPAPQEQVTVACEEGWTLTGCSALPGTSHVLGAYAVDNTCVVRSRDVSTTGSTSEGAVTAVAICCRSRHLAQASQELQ

Binder | IC50
B1 | 1.78 µM
B2 | 0.334 µM
B3 | 11.1 µM
B4 | 7.46 µM
B5 | 12 µM
B6 | 6 µM
B7 | 7.1 µM
B8 | 12.7 µM
B9 | 40.3 µM
B10 | 28.2 µM
B11 | 31.6 µM
B12 | 2.98 µM
B13 | 9.53 µM
B14 | 7.38 µM
B15 | 2.41 µM
B16 | 1.67 µM
